Data reported in patent publication US20070161078A1.

Legend:
[1] = target: MBP.NS1 H5N1B (ESEV) (influenza A H5N1) (UniProt Q6DP28); test: G assay titration
[2] = target: MBP.NS1 H5N1B (ESEV) (influenza A H5N1) (UniProt Q6DP28); test: direct binding assay titration

Substance | EC50 [1] [µg/mL] | EC50 [2] [µg/mL]
INADL d8 (from UniProt Q8NI35 1431-1525) | 1.8 | 6.1
MAST2 d1 (from UniProt Q6P0Q8 1098-1197) | 0.9 | 
Magi3 d1 (from UniProt Q5TCQ9 18-106) | 0.9 | 5
NeDLG d1,2 (from UniProt Q92796 124-316) | 0.2 | 0.8
